The results in this text go back to patent US20160297884A1 (Pfizer, published 2016).

Positions count from the first letter of the chain named.

In one assay the target is T1, Human BCMA (human, UniProt Q02223 1-54, limits assumed).
T1 construct: also called huBCMA; B-cell maturation antigen
T1 sequence (looked up): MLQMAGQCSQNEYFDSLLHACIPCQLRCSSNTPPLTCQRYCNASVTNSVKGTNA
The experiment in a line: SPR, IgG immobilised, human BCMA analyte. On the procedure: (§1) All experiments were performed on a Bio-Rad Proteon XPR36 surface Plasmon resonance biosensor (Bio-Rad, Hercules, Calif.). […] The analysis temperature for the immobilization was 25° C. and the running buffer was HBS-T+(10 mM HEPES, 150 mM NaCl, 0.05% Tween-20, pH 7.4). Channels were activated in the analyte (horizontal) direction by injecting a mixture of 1 mM ECD and 0.25 mM NHS for 3 minutes at a flow rate of 30 μL/min. IgGs were immobilized on the activated spots by injecting them in the ligand (vertical) direction at 20 μg/mL in 10 mM Acetate pH 4.5 buffer for 1.5 minutes at […]. The activated surfaces were blocked by injecting 1M ethanolamine, pH 8.5 in the analyte direction for 3 minutes at 30 μL/min.
(§2) The analysis temperature for the BCMA binding analysis was 37° C. or 25° C. in a running buffer of HBS-T+, supplemented with 1 mg/mL BSA. A kinetic titration method was employed for the interaction analysis as described in Abdiche, et al. Human BCMA (huBCMA) or cynomolgus monkey BCMA (cyBCMA) analyte was injected in the analyte direction using a series of injections from low to high concentration. The concentrations used were 0.08 nM, 0.4 nM, 2 nM, 10 nM and 50 nM (a 5-membered series, with a 5-fold dilution factor and top concentration of 50 nM). The association time for a given analyte dilution was two minutes. Immediately after the 50 nM BCMA injection, dissociation was monitored for 2 hours.
(§3) The sensorgrams were double-referenced and fit to a 1:1 Langmuir with mass transport kinetic titration model in BIAevaluation Software version 4.1.1 (GE Lifesciences, Piscataway, N.J.).
(Surface plasmon resonance follows binding to a sensor surface in real time, without labels.)

The target of a further assay is T2, Cynomolgus monkey BCMA (cynomolgus monkey).
T2 construct: Soluble analyte in SPR; also called cyBCMA; Cyno BCMA
The experiment in a line: SPR, IgG immobilised, cyno BCMA analyte. As to the method: as §1, §2, §3

B1: C01_Rd4_6nM_C10 (antibody, V domains shown)
VH: EVQLLESGGGLVQPGGSLRLSCAASGFTFSSYPMSWVRQAPGKGLEWVSAIGGSGGSLPYADSVKGRFTISRDNSKNTLYLQMNSLRAEDTAVYYCARYWPMDSWGQGTLVTVSS
VL: EIVLTQSPGTLSLSPGERATLSCRASQSVSSVYLAWYQQKPGQAPRLLIYDASSRAPGIPDRFSGSGSGTDFTLTISRLEPEDFAVYYCQQYSTWPLTFGQGTKVEIK
notes: IgG
What is called Kd is a measure of binding affinity in units of concentration. One may read the koff as the rate constant with which the complex falls apart. In general, kon refers to a measure of how fast the partners come together. In the assay with Human BCMA, B1 displayed a dissociation constant Kd of 162 pM, a koff of 0.00212 s⁻¹ and a kon of 1.31e+07 M⁻¹ s⁻¹. In the assay with Cynomolgus monkey BCMA, this molecule displayed a dissociation constant (Kd) of 493 pM, a koff of 0.00219 s⁻¹ and a kon of 4.44e+06 M⁻¹ s⁻¹.

B2: COMBO_Rd4_0.6nM_C09 (antibody, V domains shown)
VH: B1 VH with S104I
VL: B1 VL with V32T, I49M, S54I, P57T, S93Q, T94E
notes: IgG
In the assay with Human BCMA, B2 had a Kd of 31 pM, a koff of 0.000319 s⁻¹ and a kon of 1.04e+07 M⁻¹ s⁻¹. Also, in the assay with Cynomolgus monkey BCMA, the dissociation constant Kd turned out to be 92 pM, the dissociation rate constant (koff) was 0.000346 s⁻¹ and the kon came to 3.77e+06 M⁻¹ s⁻¹.

B3: COMBO_Rd4_0.6nM_C05 (antibody, V domains shown)
VH: B1 VH with P33A, S35N, L58T, P59Y, D103S, S104L
VL: B1 VL with V32T, I49M, S54I, P57T, S93M, T94S
notes: IgG
For the molecule B3, in the assay with Human BCMA, the dissociation constant Kd was 115 pM, the off-rate constant (koff) is 0.000497 s⁻¹ and the on-rate (kon) turned out to be 4.32e+06 M⁻¹ s⁻¹. For the same molecule, in the assay with Cynomolgus monkey BCMA, binding was characterised by a dissociation constant (Kd) of 886 pM, the koff was 0.00172 s⁻¹ and the kon came to 1.94e+06 M⁻¹ s⁻¹.

B4: COMBO_Rd4_0.6nM_C11 (antibody, V domains shown)
VH: B1 VH with I51A, G52L, L58T, P59Y, D103S, S104L
VL: B1 VL with S31V, V32R, I49M, S54I, P57T, S93G, T94S, L97I
notes: IgG
B4: in the assay with Human BCMA, the dissociation constant Kd was found to be 207 pM, the off-rate (koff) came to 0.00106 s⁻¹ and the kon came to 5.11e+06 M⁻¹ s⁻¹. Also, in the assay with Cynomolgus monkey BCMA, binding was characterised by a dissociation constant (Kd) of 1920 pM, the off-rate constant (koff) amounted to 0.00423 s⁻¹ and the on-rate (kon) turned out to be 2.2e+06 M⁻¹ s⁻¹.

B5: COMBO_Rd4_6nM_C02 (antibody, V domains shown)
VH: B1 VH with P33A, S35N, G52S, G53D, S57F, L58V, P59Y
VL: B1 VL with V32S, I49M, S54I, P57T, S93E, T94F
notes: IgG
In the assay with Human BCMA, B5 gave a Kd of 422 pM, a koff of 0.000443 s⁻¹ and a kon of 1.05e+06 M⁻¹ s⁻¹. In the assay with Cynomolgus monkey BCMA, the Kd worked out at 1710 pM, the koff was determined as 0.00136 s⁻¹ and the kon is 795000 M⁻¹ s⁻¹.

B6: COMBO_Rd4_0.6nM_C30 (antibody, V domains shown)
VH: B1 VH with L58T, P59Y
VL: B1 VL with S31Y, V32M, S54I, P57T, S93K, T94S
notes: IgG
In the assay with Human BCMA, B6 gave a Kd of 65 pM, a koff of 0.000282 s⁻¹ and a kon of 4.35e+06 M⁻¹ s⁻¹. Besides, in the assay with Cynomolgus monkey BCMA, binding was put at a Kd of 481 pM, the koff was 0.000808 s⁻¹ and the on-rate (kon) was 1.68e+06 M⁻¹ s⁻¹.

B7: COMBO_Rd4_0.6nM_C23 (antibody, V domains shown)
VH: B1 VH with I51L, G52F, L58T, P59Y
VL: B1 VL with A25P, S26R, V32S, I49M, S54I, P57T, S93Q, T94D
notes: IgG
Consider B7, for which, in the assay with Human BCMA, the Kd was 28 pM, the off-rate constant (koff) was 0.00021 s⁻¹ and the kon worked out at 7.39e+06 M⁻¹ s⁻¹. Moreover, in the assay with Cynomolgus monkey BCMA, the Kd turned out to be 189 pM, the koff stood at 0.000531 s⁻¹ and the association rate constant (kon) was 2.81e+06 M⁻¹ s⁻¹.

B8: COMBO_Rd4_0.6nM_C04 (antibody, V domains shown)
VH: B1 VH with I51H, G52I, L58T, P59Y
VL: B1 VL with V32T, I49M, S54I, P57T, S93Q, T94S
notes: IgG
Consider B8, for which, in the assay with Human BCMA, the affinity, expressed as Kd, was 15 pM; the koff was 0.000158 s⁻¹; the on-rate (kon) was found to be 1.07e+07 M⁻¹ s⁻¹. For the same molecule, in the assay with Cynomolgus monkey BCMA, the affinity, expressed as Kd, was 39 pM; the koff was determined as 0.000137 s⁻¹; the kon stood at 3.52e+06 M⁻¹ s⁻¹.

B9: COMBO_Rd4_0.6nM_C29 (antibody, V domains shown)
VH: B1 VH with S104I
VL: B1 VL with V32S, I49M, S54I, P57T, S93Q, T94S
notes: IgG
In the assay with Human BCMA, B9 came in with a Kd of 19 pM, a koff of 0.000277 s⁻¹ and a kon of 1.47e+07 M⁻¹ s⁻¹. In the assay with Cynomolgus monkey BCMA, this molecule showed a Kd of 84 pM, an off-rate (koff) of 0.000336 s⁻¹ and a kon of 4e+06 M⁻¹ s⁻¹.

B10: COMBO_Rd4_0.6nM_C17 (antibody, V domains shown)
VH: B1 VH with S104I
VL: B1 VL with S28G, V29I, V32T, I49M, S54I, P57T, S93A, T94Y
notes: IgG
In the assay with Human BCMA, B10 showed an equilibrium dissociation constant (Kd) of 92 pM, an off-rate constant (koff) of 0.000801 s⁻¹ and an association rate constant (kon) of 8.68e+06 M⁻¹ s⁻¹. In the assay with Cynomolgus monkey BCMA, this molecule showed a Kd of 330 pM, an off-rate (koff) of 0.00101 s⁻¹ and a kon of 3.06e+06 M⁻¹ s⁻¹.

B11: C01_Rd4_6nM_C12 (antibody, V domains shown)
VH: B1 VH with S57W, L58S, P59Y
VL: B1 VL with R24W, A25L, V32T, T94E
notes: IgG; also called PC1C12
On to B11, for which, in the assay with Human BCMA, the Kd was determined as 535 pM, the dissociation rate constant (koff) was determined as 0.00649 s⁻¹ and the on-rate (kon) was determined as 1.21e+07 M⁻¹ s⁻¹. In the assay with Cynomolgus monkey BCMA, binding was put at a Kd of 820 pM, the koff was determined as 0.0037 s⁻¹ and the on-rate (kon) is 4.51e+06 M⁻¹ s⁻¹.

B12: COMBO_Rd4_0.6nM_C20 (antibody, V domains shown)
VH: B1 VH
VL: B1 VL with S31Y, V32L, I49M, S54I, P57T, S93M, T94E
notes: IgG
In the assay with Human BCMA, B12 yielded a Kd of 19 pM, a koff of 0.000146 s⁻¹ and a kon of 7.65e+06 M⁻¹ s⁻¹. Besides, in the assay with Cynomolgus monkey BCMA, the affinity, expressed as Kd, was 92 pM; the off-rate constant (koff) was determined as 0.000284 s⁻¹; the association rate constant (kon) was 3.09e+06 M⁻¹ s⁻¹.

B13: COMBO_Rd4_0.6nM_C02 (antibody, V domains shown)
VH: B1 VH
VL: B1 VL with Q27I, S28A, V32T, I49M, S54I, P57T, S93M, T94V
notes: IgG
In the assay with Human BCMA, B13 came in with a dissociation constant (Kd) of 22 pM, a koff of 0.000185 s⁻¹ and a kon of 8.57e+06 M⁻¹ s⁻¹. In the assay with Cynomolgus monkey BCMA, this molecule came in with a Kd of 164 pM, a dissociation rate constant (koff) of 0.000494 s⁻¹ and a kon of 3.01e+06 M⁻¹ s⁻¹.

B14: COMBO_Rd4_0.6nM_C14 (antibody, V domains shown)
VH: B1 VH with S104I
VL: B1 VL with S31A, V32L, I49M, S54I, P57T, S93Y, T94G
notes: IgG
With B14, in the assay with Human BCMA, binding was characterised by a dissociation constant (Kd) of 38 pM, the dissociation rate constant (koff) came to 0.000328 s⁻¹ and the kon was 8.66e+06 M⁻¹ s⁻¹. In the assay with Cynomolgus monkey BCMA, this molecule had an equilibrium dissociation constant (Kd) of 185 pM, a koff of 0.000645 s⁻¹ and a kon of 3.48e+06 M⁻¹ s⁻¹.

B15: C01_Rd4_6nM_C24 (antibody, V domains shown)
VH: B1 VH
VL: B1 VL with S31P, V32E, T94V
notes: IgG
With B15, in the assay with Human BCMA, the affinity, expressed as Kd, was 467 pM; the dissociation rate constant (koff) is 0.00348 s⁻¹; the kon stood at 7.47e+06 M⁻¹ s⁻¹. In the assay with Cynomolgus monkey BCMA, this molecule registered an equilibrium dissociation constant (Kd) of 281 pM, a koff of 0.000891 s⁻¹ and an on-rate constant (kon) of 3.17e+06 M⁻¹ s⁻¹.

B16: C01_Rd4_6nM_C20 (antibody, V domains shown)
VH: B1 VH
VL: B1 VL with S31P, V32L, T94A, W95F
notes: IgG
In the assay with Human BCMA, B16 registered a dissociation constant Kd of 459 pM, a koff of 0.00276 s⁻¹ and a kon of 6.02e+06 M⁻¹ s⁻¹. In the assay with Cynomolgus monkey BCMA, binding was put at a Kd of 1740 pM, the koff worked out at 0.00625 s⁻¹ and the kon was 3.6e+06 M⁻¹ s⁻¹.

B17: C01_Rd4_6nM_C26 (antibody, V domains shown)
VH: B1 VH
VL: B1 VL with S31A, V32L, T94A
notes: IgG
With B17, in the assay with Human BCMA, binding was characterised by a dissociation constant (Kd) of 90 pM, the koff stood at 0.00136 s⁻¹ and the kon worked out at 1.5e+07 M⁻¹ s⁻¹. In the assay with Cynomolgus monkey BCMA, this molecule came in with a dissociation constant (Kd) of 419 pM, a koff of 0.00199 s⁻¹ and a kon of 4.75e+06 M⁻¹ s⁻¹.
